± gives the standard error. Fewer inactive variants are shown than the library holds.
B1: glmS ribozyme (parent)
chain: AUAAAAGCGCCAGAACUACAGAAAUGUAGUUGACGAGGAGGAGGUUUAUCGAAUUUUCGGCGGAUGCCUCCAAA

Columns and labels:
Settings in all cases: with glucosamine-6-phosphate
[1] = variants of: B1; assay: self-cleavage kobs at 640 uM GlcN6P; higher = faster cleavage; RNA array
In short: (§1)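 Ribozyme variants carrying barcodes were transcribed in situ on sequenced MiSeq chips by E. coli RNA polymerase and tracked at 37 °C with a hybridised Cy3 probe. They were exposed to 40 μM to 10 mM glucosamine-6-phosphate in HEPES/KCl/Mg(OAc)2 buffer. kobs came from exponential decay fits of normalised per-tile medians, and kcat and KM from weighted Michaelis–Menten fits.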

[2] = variants of: B1; assay: self-cleavage kobs at 2500 uM GlcN6P; higher = faster cleavage; RNA array
In short: as §1

[3] = variants of: B1; assay: self-cleavage kobs at 10000 uM GlcN6P; higher = faster cleavage; RNA array
In short: as §1

| Variant | self-cleavage kobs at 640 uM GlcN6P [1] | self-cleavage kobs at 2500 uM GlcN6P [2] | self-cleavage kobs at 10000 uM GlcN6P [3] |
| --- | --- | --- | --- |
| AUAAAAGCGCCAGAUCUACAGAAAUGUAGAUGACGAGGAGGAGGUUUAUCGAAUUUUCGGCGGAUGCAUCCAAA [A15U U30A C68A] | 0.000134 ± 5.1e-05 s⁻¹ | 0.000121 ± 4.8e-05 s⁻¹ | – |
| AUAAAAGCGCCAGAACUACAGAAAUGUAGUUGACGAGGGGGAGGUUUAUCGAAUUUUCGGCUGAUGCCUUCAAA [A39G G62U C70U] | < 1e-05 s⁻¹ | < 1e-05 s⁻¹ | – |
| AUAAAAGCGCCAGAACUACAGAAAUGUAGUUGACGAGGACGAGUUUCAUCGAAUAUUCGGCGGAUGCCUCCAAA [G40C G44U U47C U55A] | < 1e-05 s⁻¹ | < 1e-05 s⁻¹ | – |
| AUAAAAGCGCCAGUACUACAGAAAUGUAGUUGACGAGGAGGAGGUUUGUCGAAUUUUCGGCGCAUGCCUCCAAA [A14U A48G G63C] | < 1e-05 s⁻¹ | – | – |
| AUAAAAGGGCCAGAACUACAGAAAUGUAGUUCACGAGCAGGAGGUUUAUCGAAGUUUCGGCGGAUGCCUCCAAA [C8G G32C G38C U54G] | < 1e-05 s⁻¹ | < 1e-05 s⁻¹ | < 1e-05 s⁻¹ |
| AUAAAAGCGCCAGAACUACAGAAAUGUAGUUGUCGAGUAGGAGGUUUAUCGAAUUUUCGGCGGAUGCCUCCAAA [A33U G38U] | < 1e-05 s⁻¹ | < 1e-05 s⁻¹ | < 1e-05 s⁻¹ |
| AUAAAAGCGCCAGAACUACAGAAAUGUAAUUGACGAGGAGGGGGUUUAUCGAAUUGUCGGCGGAUGCCUCCAAA [G29A A42G U56G] | 0.000337 ± 0.00011 s⁻¹ | 0.00148 ± 0.00036 s⁻¹ | – |
| AUAAAAGCGCCAGAACUACAGAAAUGUAGUUGACGAGGAGGAGAUUUAUUGAAUUUUCGGCGUAUGCCUCCAAA [G44A C50U G63U] | < 1e-05 s⁻¹ | – | – |
| AUAAAAGCGCCAGAACUACAGAAAUGUAGUUGACGAGGAGGAGGUUUAACGAAUUUCCGGCGGAUGCCUCCAAA [U49A U57C] | < 1e-05 s⁻¹ | – | – |
| AUAAAAGCGCCAGAACUACAGAAAUGUAGUUGACGAGGAGGAGGUUUAUGGAAUUUUCGGCGCAUGUCUCCAAA [C50G G63C C67U] | 0.000103 ± 4.4e-05 s⁻¹ | – | – |
| AUAAAAGUGCCAGAACUACAGAAAUGUAGUGGACGAGGAGGAAGUUUAUCGAAUUUUCGGCGGAUGCCUCCAAA [C8U U31G G43A] | < 1e-05 s⁻¹ | – | – |
| AUAAAAGCGGCAGAACUACAGAAAUGUAGUUGACGAGGAGGAGGUUUAUCGAAUUUUCGGGGGUUGCCUCCAAA [C10G C61G A64U] | < 1e-05 s⁻¹ | < 1e-05 s⁻¹ | – |
| AUAAAAGCGCCAGAACUACAGAAAUGUAGUUGAUGAGGAUGAGGUUUAUCGAUUUUUUGUAGGAUGCAUCCAAA [C34U G40U A53U C58U G60U C61A C68A] | < 1e-05 s⁻¹ | – | – |
| AUAAAUGCGCCAGAACUACAGAAAUGUAGUUGACGAGGAGGAGGCUUAUCGAAUUUUCGGCGGAUGCCUCUAAA [A6U U45C C71U] | < 1e-05 s⁻¹ | < 1e-05 s⁻¹ | – |
| AUAAAAGCGCCAGAACUACAGAAAUGUAGUUGCCGAGGAGGAGGUUUAUAGAAUUUUCGGCGGAUGCAUCCAAA [A33C C50A C68A] | < 1e-05 s⁻¹ | < 1e-05 s⁻¹ | – |
| AUAAAAGCGCCAGAACUACAGAAAUGUAGUUGACGACGAGGAGGUUUAUCGAAUUUUCGUCGGAUGCCACCAAA [G37C G60U U69A] | < 1e-05 s⁻¹ | < 1e-05 s⁻¹ | – |
| AUAAAAGCGCCAGACCUACAGAAAUGUAGUUGACGAGGAGGAGGUUUAUCGAAUUUUAGGCGGAUGGCUCGAAA [A15C C58A C67G C71G] | 4.54e-05 ± 1.8e-05 s⁻¹ | – | – |
| AUAAAAGCGCCAGAACUACAUAAAUGUAGUUGACGAGGAGGAGGUGUACCGAAUUUUCGGCGGAUGCCUCCAAA [G21U U46G U49C] | < 1e-05 s⁻¹ | < 1e-05 s⁻¹ | – |
| AUAAAGGCGCCAGAACUACAGAAAUGUAGGUGACGAGUAGGAGGUUUAUCGAAUGUUCGGCGGAUGCCUCCAAA [A6G U30G G38U U55G] | < 1e-05 s⁻¹ | < 1e-05 s⁻¹ | – |
| AUAAAAGCGCAAGAACUACAGAAAUGUAGUUGCCGAGGGGGAGGGUUAUCGAAUUUUCGGCGGAUGCCUCCAAA [C11A A33C A39G U45G] | < 1e-05 s⁻¹ | < 1e-05 s⁻¹ | – |
| AUAAAAGCGCCAGAACUACAGAAAUGUAGUUGAGGAGGAGGAGGUUUAUCGAAUUUUCGACCGAUGCCGCCAAA [C34G G60A G62C U69G] | < 1e-05 s⁻¹ | – | – |
| AUAAAAGCGCCAGAACUACAGAAAUGUAGUUGACGAGGGGGAGGUUUAUCGAAUUUUCGUCGGAUGGCUCCAAA [A39G G60U C67G] | < 1e-05 s⁻¹ | < 1e-05 s⁻¹ | < 1e-05 s⁻¹ |

| Variant | self-cleavage kobs at 640 uM GlcN6P [1] | self-cleavage kobs at 2500 uM GlcN6P [2] | self-cleavage kobs at 10000 uM GlcN6P [3] |
| --- | --- | --- | --- |
| AUAAAAGCGCCAGAACUACAGAAAUGUAGUUGACGAGGAGGAGGUUUAUCGAGUUUUCGGCCGAUGCCUCCAAA [A53G G62C] | < 1e-05 s⁻¹ | < 1e-05 s⁻¹ | – |
| AUAAAAGCGCCAGAACUACAGAAAUGUAGUUGUGGAGGAGGAGGUUUAUCGAAUUUUCGGCGGAUGCCUCCAAA [A33U C34G] | < 1e-05 s⁻¹ | < 1e-05 s⁻¹ | < 1e-05 s⁻¹ |
| AUAAAAGCGCCAGAACUACAGAAAUGUAAUUGACGAGGAGGAGGUUUAUCGAAUUUUUGGCGGAUGGCUCCAAA [G29A C58U C67G] | 0.000115 ± 2.9e-05 s⁻¹ | – | – |
| AUAAAAGCGCCAGAACUACAGAAAUGUAGUUGACGAGGUGGAGGUUUAUCGCGUUUUCGGCGGUUGCCUCCAAA [A39U A52C A53G A64U] | < 1e-05 s⁻¹ | < 1e-05 s⁻¹ | – |
| AUAAAAGCGCCAGAACUACAGAAAUGUAGUUGGCGAGGAGGAGGUUUCUCGAAUUUUCGGAGGAUGGCUCCAAA [A33G A48C C61A C67G] | < 1e-05 s⁻¹ | – | < 1e-05 s⁻¹ |
| AUAAAAGCGCCAGAACUACAGAAAUGUAGAUGACGAGGAGGAGGUUUAUAGAAUUUUCGGCGGAUGACUGCAAA [U30A C50A C67A C70G] | 4.38e-05 ± 1.7e-05 s⁻¹ | – | – |
| AUAAAAGUGCCAGAACUACAGAAAUGUAGUUGACGAGGAGGAGGUGUAUCUAAUUUUCGGCGGAUUCCUGUAAA [C8U U46G G51U G66U C70G C71U] | < 1e-05 s⁻¹ | – | – |
| AUAAAAGCGCCAGAACUACAGAAAUGUAGUUGACGAGGAGGAAGUUUGUCGAAUUAUCGGCGGAUGCGUCCAAA [G43A A48G U56A C68G] | < 1e-05 s⁻¹ | – | – |
| AUAAAAGCGCCAGAACUACAGAAAUGUACUUGGCGAGGAGGAGGUUUAUCGAAUUUUCGGCGGAUGCGUCCAAA [G29C A33G C68G] | 6.58e-05 ± 3e-05 s⁻¹ | – | – |
| AUAAAAGCGCCAGAACUACAGAAAUGUAGUUGAGGAGGAGUAGGUUUAUCCAAUUUUCGGCGGAUGCCUCGAAA [C34G G41U G51C C71G] | < 1e-05 s⁻¹ | – | – |
| AUAAAAGCGCCAGAACUACAGAAAUGUAGUUGACGCGGACGAGGUUUAUCGAAUUUUCGGCGGAUGCCUCCAAA [A36C G40C] | < 1e-05 s⁻¹ | < 1e-05 s⁻¹ | < 1e-05 s⁻¹ |
| AUAAAAGCGCCAGAACUACAGAAAUGUAGUUGACGAGGAGGAGGUUUCUCGAAUUUUCGGCGGAUGCCUUGAAA [A48C C70U C71G] | < 1e-05 s⁻¹ | – | – |
| AUAAAACCGCGAGAACUACAGAAAUGUAGUUGACGAGGAGAAGGUUUAUCGAAUUUUCGGCGGAUGCCUCCAAA [G7C C11G G41A] | < 1e-05 s⁻¹ | < 1e-05 s⁻¹ | – |
| AUAAAAGCGCUAGAACUACAGAAAUGUAGUUGACGAGGAGGAGGUUUAUCGAAUUUUCGGCGGAGGGCUCCAAA [C11U U65G C67G] | 0.000877 ± 0.00023 s⁻¹ | – | 0.000136 ± 2.6e-05 s⁻¹ |
| AUAAAAGCGCCAGUACUACAGAAAUGUAGUUGACGAGGCGGAGGUUUAUCGAAUUUUCGGCGGGUGCCUCCAAA [A14U A39C A64G] | 0.000213 ± 5e-05 s⁻¹ | 0.000771 ± 0.0002 s⁻¹ | – |
| AUAAAAGCGCCAGAACUACAGAAAUGUAGUUGACGAGUAGGAGGUUGAUCGAAUUUUCGGCGGAUGCUUCCAAA [G38U U47G C68U] | 0.000119 ± 4e-05 s⁻¹ | – | – |
| AUAAAAGCGCCAGAACUACAGAAAUGUAGUUGACGAGGAGUAGGUUUAUUGAAUUUUCGCCGGAUGCCUCCAAA [G41U C50U G60C] | < 1e-05 s⁻¹ | – | – |
| AUAAAAAUGCCAUACCUACAGAAAUGUAGUUGACGAGGCGGAGGUUUAUCGAAUGUACGGCGGAUGCCUCCAAA [G7A C8U G13U A15C A39C U55G U57A] | < 1e-05 s⁻¹ | – | – |
| AUAAAAGCGCAAGAACUACAGAAAUGUAGUUGACGAGGAGGAGGUUUAUCGAAUUUUCGGUGGAUGCCUCCAAA [C11A C61U] | < 1e-05 s⁻¹ | < 1e-05 s⁻¹ | < 1e-05 s⁻¹ |
| AUAAAAGCACCAGAACUACAGAAAUGUAGUGGACGAGGAGGAGGUUUAUCGCAUUUUCGGCGGAUGCCUCCAAA [G9A U31G A52C] | < 1e-05 s⁻¹ | – | – |
| ACAAAAGCGCCAGAACUACAGAAAUGUAGUCGACGAGGAGGAGGUUUAUCGAAUUUUCGGCGGAUGCCUCCAAA [U2C U31C] | 0.000805 ± 0.00025 s⁻¹ | – | – |
| AUAAAAGCGCCCGAACUACAGAAAUGUACGUGACGAGGAGGAGGUUUAUCGAAUUUUCGGCGGAUGCCUCCAAA [A12C G29C U30G] | 0.000163 ± 2.9e-05 s⁻¹ | 0.000329 ± 8.6e-05 s⁻¹ | – |
